According to patent US20260125443A1 (APRILBIO, published 2026):

T1: human follicle stimulating hormone receptor (human, UniProt P23945 18-695)
T1 construct: whole, on cells; also called human FSHR; human FSH receptor
T1 sequence (looked up): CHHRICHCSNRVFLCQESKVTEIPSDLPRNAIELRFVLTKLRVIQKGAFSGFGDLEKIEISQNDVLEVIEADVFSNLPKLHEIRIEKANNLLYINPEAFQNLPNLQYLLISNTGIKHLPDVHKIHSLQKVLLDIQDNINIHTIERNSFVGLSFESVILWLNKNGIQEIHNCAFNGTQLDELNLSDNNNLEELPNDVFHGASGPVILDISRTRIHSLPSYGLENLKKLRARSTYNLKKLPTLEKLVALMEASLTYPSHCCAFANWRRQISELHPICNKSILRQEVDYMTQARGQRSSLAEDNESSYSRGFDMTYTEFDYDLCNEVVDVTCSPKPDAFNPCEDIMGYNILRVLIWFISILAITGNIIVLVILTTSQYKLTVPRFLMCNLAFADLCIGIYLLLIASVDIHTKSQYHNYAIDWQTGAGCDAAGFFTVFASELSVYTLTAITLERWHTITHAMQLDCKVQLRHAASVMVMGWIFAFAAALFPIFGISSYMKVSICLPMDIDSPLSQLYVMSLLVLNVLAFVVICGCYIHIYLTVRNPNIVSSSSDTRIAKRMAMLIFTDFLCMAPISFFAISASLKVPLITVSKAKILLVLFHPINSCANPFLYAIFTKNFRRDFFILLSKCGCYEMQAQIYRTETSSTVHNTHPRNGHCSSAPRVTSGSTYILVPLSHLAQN

B1: SL335 fragment (Fab, V domains shown)
VH: QVQLVQSGGGPVKPGGSLRLSCAASGFMFRAYSMNWVRQAPGKGLEWVSSISSSGRYIHYADSVKGRFTISRDNAKNSLYLQMNSLRAEDTAVYYCARETVMAGKALDYWGQGTLVTVSS
VL: DIVLTQSPGTLSLSPGETATLSCRASQSVGSNLAWYQQKPGQAPRLLIYGASTGATGVPARFSGSRSGTDFTLTITSLQPEDFATYYCQQYYSFLAKTFGQGTQLEIKR
notes: Fab without FSH, used as the control in the FSHR flow cytometry assay; also called human anti-serum albumin Fab antibody fragment
B2: SAFA-FSH-B protein (other)
heavy: QVQLVQSGGGPVKPGGSLRLSCAASGFMFRAYSMNWVRQAPGKGLEWVSSISSSGRYIHYADSVKGRFTISRDNAKNSLYLQMNSLRAEDTAVYYCARETVMAGKALDYWGQGTLVTVSSASTKGPSVFPLAPSSKSTSEGTAALGCLVKDYFPEPVTVSWNSGALTSGVHTFPAVLQSSGLYSLSSVVTVPSSSLGTQTYICNVNHKPSNTKVDKKVEPKSSGGGGSGGGGSGGGGSNSCELTNITIAIEKEECRFCISINTTWCAGYCYTRDLVYKDPARPKIQKTCTFKELVYETVRVPGCAHHADSLYTYPVATQCHCGKCDSDSTDCTVRGLGPSYCSFGEMKE
light: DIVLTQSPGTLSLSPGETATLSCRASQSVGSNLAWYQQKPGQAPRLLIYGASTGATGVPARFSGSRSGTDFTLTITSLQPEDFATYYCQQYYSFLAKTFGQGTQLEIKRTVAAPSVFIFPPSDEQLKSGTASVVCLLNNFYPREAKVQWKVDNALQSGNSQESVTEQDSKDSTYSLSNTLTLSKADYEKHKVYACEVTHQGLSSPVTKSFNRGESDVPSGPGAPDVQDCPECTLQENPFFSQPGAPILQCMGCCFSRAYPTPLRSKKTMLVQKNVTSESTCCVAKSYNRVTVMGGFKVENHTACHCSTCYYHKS
notes: Anti-serum-albumin Fab SL335 with hFSH beta on the C-terminus of CH1 and hFSH alpha on the C-terminus of CL; also called SAFA-FSH protein; recombinant fusion protein

Experiments:
[1] = target: T1, human follicle stimulating hormone …; assay: flow cytometry on human FSHR stable HEK293 cells, detection with goat anti-human IgG Fd-FITC
Experimental: By using a human FSHR stable cell line (HEK293, Creative Biogene, USA) expressing human FSH receptors on the surface, the binding between the SAFA-FSH protein and the FSH receptors was analyzed with a CytoFLEX flow cytometer (Beckman Coulter, USA).
Subsequently, the binding between the SAFA-FSH protein and the human FSHR was confirmed by using the human FSHR stable cell line in which the expression of human FSHR was confirmed. Specifically, the human FSHR stable cells were dissolved in MACS buffer (PBS containing 0.5% BSA and 2 mM EDTA) at a concentration of 1×10⁶ cells/ml, and then added in an amount of 100 μl (1.0×10⁵ cells/test) to a 1.7 ml tube. The cells were then centrifuged at 500×g at 4° C. for 5 minutes. After removing the supernatant from the 1.7 ml tube, 100 μl each of the SAFA-FSH protein and the SL335 fragment that were diluted with MACS buffer at a concentration from 1,000 nM to 0.064 nM was added to the same tube to proceed a reaction at 4° C. for 30 minutes. After 500 μl of MACS buffer was added to the tube and the cells were centrifuged at 500×g at 4° C. for 5 minutes, the supernatant was removed therefrom to remove unbound proteins. 100 μl of goat anti-human IgG Fd-FITC (Southern Biotech, USA) antibody diluted with MACS buffer at a ratio of 1:500 was added to the tube to proceed a reaction at 4° C. for 30 minutes. […]

human serum albumin [2] = target: T2, human serum albumin (human, UniProt P02768 25-609); assay: BLI (Octet Red), HSA immobilised on AR2G sensor, pH 6.0
T2 construct: Immobilised on an AR2G biosensor; also called HSA; human serum albumin (Sigma)
T2 sequence (P02768 25-609 limits assumed): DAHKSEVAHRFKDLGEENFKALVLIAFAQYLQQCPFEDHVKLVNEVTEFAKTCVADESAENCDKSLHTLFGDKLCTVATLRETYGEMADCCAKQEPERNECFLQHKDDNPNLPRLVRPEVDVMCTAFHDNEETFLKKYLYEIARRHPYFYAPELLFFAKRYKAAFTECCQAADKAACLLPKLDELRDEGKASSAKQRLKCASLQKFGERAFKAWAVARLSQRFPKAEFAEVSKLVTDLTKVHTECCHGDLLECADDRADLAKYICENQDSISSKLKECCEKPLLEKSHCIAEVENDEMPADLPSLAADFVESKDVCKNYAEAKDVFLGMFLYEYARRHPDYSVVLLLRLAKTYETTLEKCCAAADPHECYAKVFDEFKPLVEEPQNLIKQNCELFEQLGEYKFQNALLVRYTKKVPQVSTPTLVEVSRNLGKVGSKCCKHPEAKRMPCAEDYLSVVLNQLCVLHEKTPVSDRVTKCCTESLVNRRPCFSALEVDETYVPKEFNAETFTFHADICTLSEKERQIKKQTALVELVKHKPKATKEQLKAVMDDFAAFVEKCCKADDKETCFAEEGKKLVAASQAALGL
Experimental: (§1) By using Bio-Layer Interferometry (BLI) and Octet® BLI systems (Octet® Red, Sartorius, Germany), the binding ability of the SAFA-FSH protein to human serum albumin was analyzed. On an AR2G biosensor chip (Sartorius, Germany), human serum albumin (Sigma) was immobilized at a concentration of 30 μg/mL with a 10 mM acetate buffer pH 5.0, and the SAFA-FSH protein was added thereto at concentrations of 6.25 nM, 3.125 nM, 1.56 nM, and 0.78 nM (association: 600 s, dissociation: 900 s), so as to confirm the binding ability between the two under conditions of pH 7.4 or pH 6.0 conditions.

human serum albumin [3] = target: T2, human serum albumin; assay: BLI (Octet Red), HSA immobilised on AR2G sensor, pH 7.4
Experimental: as §1

Binder | binding result [1] | Kd (human serum albumin [2]) | koff (human serum albumin [2]) | kon (human serum albumin [2]) | Kd (human serum albumin [3]) | koff (human serum albumin [3]) | kon (human serum albumin [3])
B1 | no binding (tested: 1000 nM) |  |  |  |  |  | 
B2 |  | 0.313 nM | 0.000149 s⁻¹ | 475000 M⁻¹ s⁻¹ | 0.359 nM | 0.000136 s⁻¹ | 379000 M⁻¹ s⁻¹
